assay: yeast display, Sf9 membrane polyspecificity reagent, FACS + sequencing; frameworks hold sequencing errors
In short: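 Synthetic nanobody libraries on Saccharomyces cerevisiae BJ5465 were galactose-induced for 36–48 hours, stained 1 hour at 4 °C with 10% biotinylated, detergent-solubilized Sf9 membrane reagent and enriched on streptavidin microbeads. FACS then separated cells into low and high (top ~1%) gates by anti-HA (expression) and streptavidin (reagent binding) fluorescence. Genes were colony-PCR amplified, MiSeq 2 × 250 sequenced and CDR-length filtered. A clone's polyreactivity label is that of its gate of origin.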

| Sequence | polyreactivity (PSR sort gate) |
| --- | --- |
| QVQLVESGGGLVQAGGSLRLSCAASGIIFRWYTMGWYRQAPGKERELVAAISTSTGSTYYADSVKGRFTISRDNAKNTVYLQMNSLKPEDTAVYYCNARQFSGLGYWGQGTQVTVSS | high polyreactivity |
| QVQLVESGGGLVQAGGSLRLSCAASGIIFRYNAMGWYRQAPGKARELVAALSFRGGSTRYADSVKGRCTISRDTATNTVYLQMNSLKPEDTAVYYCNAQRRTYIYDYWGQGTQVTVSS | high polyreactivity |
| QVQLVESGGGLVQAGGSLRLSCAASGIIFRYNAMGWYRQAPGKERELVAAISRSSGSTYYADSVKGRFTISRDNAKNTVYLQMNSLKPEDTAVYYCAAYPRYRVEYWGQGTQVTVSS | high polyreactivity |
| QVQLVESGGGLVQAGGSLRLSCAASGIIFRYNAMGWYRQAPGKERELVAAISTGGSTNYADSVKGRFTISRDNAKNTVYLQMNSLKPEDTAVYYCAADWHRAYGAYDYWGQGTQVTVSS | low polyreactivity |
| QVQLVESGGGLVQAGGSLRLSCAASGIIFRYYDMGWYRQAPGKERELVARITSRGGTYYADSVKGRFTISRDNATNTVYLKMNSLKPEDTAVYYCAASYLLTHGYAYNYWGQGTQVTVSS | high polyreactivity |
| QVQLVESGGGLVQAGGSLRLSCAASGIIFSDYAMGWYRQAPGKERELVAAITGGGSTYYADSVKGRFTISRDNAKNTVYLQMNRLKPEDTAVYYCNADWARLLIRSTEFDYWGQGTQVTVSS | low polyreactivity |
| QVQLVESGGGLVQAGGSLRLSCAASGIIFSEYAMGWSRQAPGKERELVAAITKSGGSTYYADSVKGRFTISRDNAKNTVYLQMNSLKPEDTAVYYCAKKTPYIRGKDNYWGQGTQVNVSS | low polyreactivity |
| QVQLVESGGGLVQAGGSLRLSCAASGIIFSFYAMGWYRQAPGKERELVAAISRSGGSTYYADSVKGRFTISRDNEKNSVYLQMNSLKPEDTAVYYCNADNGASYYYRRYDSLGQGTQVTVSS | high polyreactivity |
| QVQLVESGGGLVQAGGSLRLSCAASGIIFSHYAMGWYRQAPGKERELVAAISSRGGSTYYADSVKGRFTISRDNAKNTVYLQMNSLKPEDTAVYYCNAKWTSHGTYAEDYWGQGTQVTVSS | high polyreactivity |
| QVQLVESGGGLVQAGGSLRLSCAASGIIFSINAMGWDRQAPGKERELVAAISRSGGSTNYADSVKGRFTISRDNAKNTVYLQMNSLKPEDTAVYYCATVHRYSVWSHNYWGQGTQVTVAS | high polyreactivity |
| QVQLVESGGGLVQAGGSLRLSCAASGIIFSIYAMGWYRQAPGKERELVAVISRSSGSTYYADSVKGRFTISRDNAKNTVYLQMNSLKPEDTAVYYCAADRYSYGSNGYPRFEYYYWGQGTQVTVSS | high polyreactivity |
| QVQLVESGGGLVQAGGSLRLSCAASGIIFSIYTMGRYRQAPGKERELVAAINRSGSRTYYADSVKGRFTISRDNAKNTVYLQMNSLKPEDTAVYYCAAGTGSRDYYWGQGTQVTVSS | high polyreactivity |
| QVQLVESGGGLVQAGGSLRLSCAASGIIFSLNTMGWYRQAPGKERELVAAISSSGGSTYYADSVKGRFTISRDNAKNTVYLQMTSLKPEDTAVYYCARRYAPNTSLTFYYWGQGTQVTVSS | low polyreactivity |
| QVQLVESGGGLVQAGGSLRLSCAASGIIFSPYAMGRYRQAPGKERELVAAITYSGDTTYYADSVKGRFTISRDNAKNTVYLQMNSLKPEDTAVYYCAVEDAGQGGDYWGQGTQVTVSS | low polyreactivity |
| QVQLVESGGGLVQAGGSLRLSCAASGIIFSPYAMGWYRQAPVKERELVAAISYSGGSTYYADSVKGRFTISRDNAKNTVYLQMNSLKPEDTAVYYCAVVYSYYLAVLGYWDYDYWGQGTQVTVSS | low polyreactivity |
| QVQLVESGGGLVQAGGSLRLSCAASGIIFSRYVMGWSRQAPGKERELVAAISGSGGSTYYADSVKGRFTISRDNAKNTVYLQMNSLKPEDTAVYYCAKRRSWSNRIYGYWGQGTQVTVSS | high polyreactivity |

| Sequence | polyreactivity (PSR sort gate) |
| --- | --- |
| QVQLVESGGGLVQAGGSLRLSCAASGIIFSSNAMGWYRQAPGKERELVAAISRRGGSTYYADSVKGRFTISRDNAKNTVYLQMNSLKPEDTAVYYCNALLYNGAGYDYWGQGTQVTVSS | high polyreactivity |
| QVQLVESGGGLVQAGGSLRLSCAASGIIFSSYAMGWYRQAPGKERELVAAISLSGGSTYYADSVKGRFTISRDNAKNTVYLQMNSLKPEDTAVFYCNTVRQRARFTKVDYWGQGTQVTVSS | high polyreactivity |
| QVQLVESGGGLVQAGGSLRLSCAASGIIFSSYGMGWYRQAPGKERELVAAIRWSTGNTYYADSVKGRFTISRDNAKNTVYLQMNSLKPEDTAVYYCAKRSSWGYHFYYWGQGTQVTVSS | high polyreactivity |
| QVQLVESGGGLVQAGGSLRLSCAASGIIFSWYDMGWYRKAPGKERELVAAISSGDRTNYADSVKGRFTISRDNAKNTVYLQMNSLKPEDTAVYYCAADLFPIAGEYDYWGQGTQVTVSS | high polyreactivity |
| QVQLVESGGGLVQAGGSLRLSCAASGIIFSYNAMGWYRQAPGKERELVAAITRRGTRTYYADSVKGRFTISRDNAKNTVYLQMNSLKPEDSAVYYCAADYVRPGTKYDYWGQGTQVTVSS | high polyreactivity |
| QVQLVESGGGLVQAGGSLRLSCAASGIIFSYNAMGWYRQAPGKERELVAAITRTGSTNYADSVKGRFTISRDNAKNTVYLQMNSLKPEDTAVYYCAAGWGYGRYRHVGYRMDYWGQGTQVTVSS | high polyreactivity |
| QVQLVESGGGLVQAGGSLRLSCAASGIIFTDNALGWYRQAPGKERELVATISWSTDNTYYADSVKGRFTISRDNAKNTVYLQMNSLKPEDTAVYYCAAEEYYAYWYQYDYWGQGTQVTVSS | low polyreactivity |
| QVQLVESGGGLVQAGGSLRLSCAASGIIFTGYTMGWYRQAPGKERELVAAITWRGGSTYYADSVKGRFTISRDNAKNTVYLQMNSLKPEDTAVYYCAAEGWYSWDDDYWGQGTQVTVSS | low polyreactivity |
| QVQLVESGGGLVQAGGSLRLSCAASGIIFTKYAMGWYRQAPGKERELVAAITASGGSTYYADSVKGRFTISRDNAKNTVYLQMNSLKPEDTAVYYCAARSQSRYGYWGQGTQVTVSS | high polyreactivity |
| QVQLVESGGGLVQAGGSLRLSCAASGIIFTKYVMGWYRQAPGKERELVAAINTDGGSTRYADSVKGRFTISRDNAKNTVYLQKNSLKPEDTAVYYCAAVSSRRPGYEYYYWGQGTQVTVSS | high polyreactivity |
| QVQLVESGGGLVQAGGSLRLSCAASGIIFTSNTMGWYRQAPGKEREFVASINWNGSSTYADSVKGRFTISRDNAKNTVYLQMNSLKPEDTAVYYCAAEASPRLYRKYDYWGQGTQVTVSS | low polyreactivity |
| QVQLVESGGGLVQAGGSLRLSCAASGIIFTYNAMGWSRQAPGKERELVAAINSSGGSTNYADSVKGRFTISRDNAKNTVYLQMNSLKPEDTAVYYCAARDATYYGVWRYYGIDDYWGQGTQVTVSS | low polyreactivity |
| QVQLVESGGGLVQAGGSLRLSCAASGIIFTYYAMGWYRQAPGKERELVAAISVSGSSTYYADSVKGRFTISRDNAKNTVYLQMNSLKPEDTAVYYCAARYQWGTRGFGYWGQGTQVTVSS | high polyreactivity |
| QVQLVESGGGLVQAGGSLRLSCAASGIIFVENAMGWYRQAPGKERDLVASGDSTYADSVKGRFTIARDNAKNTVYLQMNSLKPEDNAVYYCNTDGYPRLYIYDYWGQGTQVTVSS | low polyreactivity |
| QVQLVESGGGLVQAGGSLRLSCAASGIIFVENAMGWYRQAPGKERELVAAISWDGGSTYYADSVKGRFTISRDNAKNTVYLQMNSLKPEDTAVYYCAADLTISYSQEYYYWGQGTQVTVSS | low polyreactivity |
| QVQLVESGGGLVQAGGSLRLSCAASGIIFVQYAMGWYRQAPGKERELVAGITRRGGSTYYADSVKGRFTISRDNAKNTVYLQMNSLKTEDTAVFYCAATRPGDVLYRNEYWGQGTQVTVSS | high polyreactivity |

— the nanobody polyreactivity screen of Harvey et al. (2022)
